# Measurements taken from US20190284287A1 (TUSK THERAPEUTICS, published 2019).
# Substitutions are numbered along the chain they refer to.
# T1: human CD25 antigen, Sino Biologicals cat no. 10165-H08H (~20% dimer) (human, UniProt P01589 22-213)
# T1 construct: Bought antigen; also called Sino biological (~20% dimer)
# T1 sequence: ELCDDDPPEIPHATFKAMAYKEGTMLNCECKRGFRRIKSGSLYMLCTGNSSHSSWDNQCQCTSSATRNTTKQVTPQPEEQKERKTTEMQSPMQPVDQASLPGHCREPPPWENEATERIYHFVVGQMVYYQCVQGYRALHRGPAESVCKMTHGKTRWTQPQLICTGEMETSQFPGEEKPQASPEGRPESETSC
# T2: inhouse produced monomeric human CD25 antigen (P1AA5872) (human, UniProt P01589 22-240, limits assumed)
# T2 construct: also called Inhouse (0% dimer)
# T2 sequence: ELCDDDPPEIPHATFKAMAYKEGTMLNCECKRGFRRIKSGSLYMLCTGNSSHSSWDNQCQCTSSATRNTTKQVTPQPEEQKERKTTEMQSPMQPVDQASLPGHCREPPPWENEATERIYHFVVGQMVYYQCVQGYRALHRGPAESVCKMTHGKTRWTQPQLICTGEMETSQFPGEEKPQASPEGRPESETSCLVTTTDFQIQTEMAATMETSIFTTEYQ
# T3: human CD25 expressed on cells (human, UniProt P01589 22-272)
# T3 construct: Endogenous CD25 on human cell lines and primary cells
# T3 sequence: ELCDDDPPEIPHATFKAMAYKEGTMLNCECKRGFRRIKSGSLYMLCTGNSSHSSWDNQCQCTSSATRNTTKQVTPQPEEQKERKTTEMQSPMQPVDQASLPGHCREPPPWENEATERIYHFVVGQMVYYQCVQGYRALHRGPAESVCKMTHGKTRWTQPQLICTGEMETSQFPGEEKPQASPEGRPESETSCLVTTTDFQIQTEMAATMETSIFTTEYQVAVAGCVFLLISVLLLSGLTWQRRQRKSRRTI
# T4: recombinant human CD25 extracellular protein sequence (rhCD25) (human, UniProt P01589 22-240)
# T4 construct: also called human CD25 antigen
# T4 sequence: T2 sequence
# T5: recombinant human CD25 his tagged (human, UniProt P01589 22-240)
# T5 construct: also called rhCD25-his tag; not shown: His tag
# T5 sequence: T2 sequence
# T6: human CD25 antigen, R&D Systems cat no. 223-2A/CF (~10% dimer) (human, UniProt P01589 22-240, limits assumed)
# T6 construct: also called R&D Systems (~10% dimer); huCD25 (IL2R alpha)
# T6 sequence: T2 sequence
# B1: aCD25-a-686 (antibody, V domains shown)
# VH: QVQLVQSGAEVKKPGSSVKVSCKASGGTFSSLAISWVRQAPGQGLEWMGGIIPIFGTANYAQKFQGRVTITADESTSTAYMELSSLRSEDTAVYYCARGGSVSGTLVDFDIWGQGTMVTVSS
# VL: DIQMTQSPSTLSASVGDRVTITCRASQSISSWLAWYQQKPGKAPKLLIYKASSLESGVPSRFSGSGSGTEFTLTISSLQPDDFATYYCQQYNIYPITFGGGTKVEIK
# notes: not shown: human IgG1 heavy chain constant region (P01857); human kappa light chain constant region (P01834)
# B2: aCD25-a-686-m1 (antibody, IgG1, V domains shown)
# VH: B1 VH with G50A, I54V, N59S
# VL: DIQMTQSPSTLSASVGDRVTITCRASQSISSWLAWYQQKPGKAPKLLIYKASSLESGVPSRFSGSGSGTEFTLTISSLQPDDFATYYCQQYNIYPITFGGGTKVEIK
# notes: also called aCD25-a-686-ml; aCD25-a-686ml
# B3: aCD25-a-686-m2 (antibody, IgG1, V domains shown)
# VH: B1 VH with S35T, T57D, N59S
# VL: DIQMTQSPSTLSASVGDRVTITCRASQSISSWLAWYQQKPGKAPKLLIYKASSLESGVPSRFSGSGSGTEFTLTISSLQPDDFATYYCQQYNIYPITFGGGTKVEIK
# B4: aCD25-a-686-m3 (antibody, IgG1, V domains shown)
# VH: B1 VH with T57D, F64L, I70M, A72T, E74T, S84R, E89D
# VL: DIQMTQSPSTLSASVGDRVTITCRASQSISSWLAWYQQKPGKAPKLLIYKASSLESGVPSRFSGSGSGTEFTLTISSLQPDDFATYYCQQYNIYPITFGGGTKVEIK
# B5: aCD25-a-686-m4 (antibody, IgG1, V domains shown)
# VH: B1 VH with S31A, I54L, T57R
# VL: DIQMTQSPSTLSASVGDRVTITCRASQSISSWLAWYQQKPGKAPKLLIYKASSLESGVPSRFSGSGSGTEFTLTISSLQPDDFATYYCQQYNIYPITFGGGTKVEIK
# B6: aCD25-a-686-m5 (antibody, IgG1, V domains shown)
# VH: B1 VH with S35F, I54V, T57Q, A72V
# VL: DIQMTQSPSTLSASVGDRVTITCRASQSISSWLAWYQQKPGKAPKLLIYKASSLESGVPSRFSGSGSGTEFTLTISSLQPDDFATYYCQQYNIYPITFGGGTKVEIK
# B7: afucosylated aCD25-a-686 (antibody, human IgG1, V domains shown)
# VH: B1 VH
# VL: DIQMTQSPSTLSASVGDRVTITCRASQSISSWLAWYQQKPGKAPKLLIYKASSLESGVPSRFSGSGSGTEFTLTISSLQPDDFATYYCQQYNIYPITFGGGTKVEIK
# modifications: Fc glycan afucosylated (>99% of a-fucosylation by LC/MS)
# Key:
# [1] = target: T1, human CD25 antigen, Sino Biologicals …; assay: SPR, Biacore T200; antibody captured by anti-human Fab, CD25 as analyte, Two State Reaction fit; column 'Binding strength' (affinity and/or avidity); Sino Biological CD25 (~20% dimer), Two State Reaction fit; affinity and/or avidity
# Description: (§1) Binding of CD25 antibodies to human CD25 antigen was investigated by surface plasmon resonance using a BIACORE T200 instrument (GE Healthcare).
# (§2) For calculation of KD and kinetic parameters Biacore provided fitting models were used to obtain optimal curve fitting results. The 1:1 Langmuir fit was used for P1AA5872 and the Two State Kinetic fitting for CD25 from Sino Biologicals and R&D Systems.
# [2] = target: T2, inhouse produced monomeric human CD25 …; assay: SPR, Biacore T200; antibody captured by anti-human Fab, monomeric CD25 as analyte, 1:1 Langmuir fit; column 'Binding strength'
# Protocol: as §1
# (§3) The flow cell was set to 25° C. and the sample compartment to 12° C. The CD25 antibody was captured by injecting a 3 μg/ml solution for 60 sec at a flow rate of 10 μl/min. Association of CD25 antigen was measured by injection of human CD25 solutions for 180 sec at a flow rate of 30 μl/min starting with a concentration of 1000 nM down to 1 nM in 1:10 dilution steps. The dissociation phase was triggered by switching from sample solution injection to running buffer and monitored for up to 600 seconds. The surface was regenerated by washing with two consecutive 1-minute injections of 10mM glycine pH 2.1 (provided by the kit) at a flow rate of 10 μl/min. Bulk refractive index differences were corrected by subtracting the response obtained from an anti-human Fab reference surface; blank injections are also subtracted (=double referencing).
# as §2
# [3] = target: T3, human CD25 expressed on cells; assay: flow cytometry on human in vitro differentiated Treg cells, Alexa Fluor 647 anti-human IgG secondary
# Protocol: Binding to CD25 expressing in vitro differentiated Tregs was examined by staining test articles (anti-CD25 primary antibodies) with 30 μg/ml antibodies followed by semi-log dilution series (7-point) for 30 minutes on ice. […] All samples were stained in duplicates. Live cells were gated using FSC vs SSC parameters by flow cytometry during sample acquisition. Mean fluorescence intensity (MFI) of stained cells were plotted on an XY chart, graphing MFI against the log of the concentration, and the data fit to a non-linear regression curve from which the EC50 is calculated.
# [4] = target: T3, human CD25 expressed on cells; assay: flow cytometry on CD3/CD28 bead activated human Pan T cells, gated on CD8+ T cells
# Protocol: (§4) Binding to CD25 expressing activated human and Cynomolgus monkey PMBC was examined by staining test articles (anti-CD25 primary antibodies) with 20 μg/ml antibodies followed by semi-log dilution series (7-point) for 30 minutes on ice. This was followed by staining with a secondary antibody (rabbit anti-human Fcg F(ab′)2—(Jackson ImmunoResearch)) concentration of 5 μg/ml for 30 minutes on ice. All samples were stained in triplicates. To minimize cross-linking induced cell death mediated by binding of the secondary antibody, cell lines were examined in staining cohorts of 4 test articles at a time. Live lymphocytes were gated using FSC vs SSC parameters by flow cytometry during sample acquisition. Mean fluorescence intensity (MFI) of gated CD4⁺ and CD8⁺ T cell subsets were plotted on an XY chart, graphing MFI against the log of the concentration, and the data fit to a non-linear regression curve from which the EC50 was calculated.
# [5] = target: T4, recombinant human CD25 extracellular …; assay: method not given; upper end of the stated range
# [6] = target: T5, recombinant human CD25 his tagged; assay: SPR, Biacore 2000; antibody captured by anti-human antibody, rhCD25-His as analyte, two state fit
# Protocol: (§5) Anti-human antibody was initially immobilised across all flow cells in analysis buffer (pH 7.4, 10 mM HEPES, 150 mM NaCl, 3 mM EDTA, 0.05% Tween 20) to an RU of between 12,000-14,000 over 10 minutes. […] Dissociation was performed in analysis buffer over 10 minutes. Regeneration steps between sample concentrations were performed in 10 mM Glycin pH1.7 for 10 minutes. A flow rate of 25 μl/min was maintained throughout the process. Kinetics data were fit using a global two state reaction conformational change analysis software provided by Biacore with reference subtraction.
# [7] = target: T3, human CD25 expressed on cells; assay: cell-based or functional assay
# [8] = target: T5, recombinant human CD25 his tagged; assay: BLI, ForteBio Octet Red96; IgG on AHC sensors, rhCD25-His in solution, 1:1 fit
# Protocol: Sensors were equilibrated off-line in assay buffer for 10 min and then monitored on-line for 60 seconds for baseline establishment. […] Then, 1:3 serial dilutions (from 1 uM to 4 nM) of recombinant human CD25 HIS tagged was associated to the loaded IgG for 10 min. Afterwards they were transferred to assay buffer for 6.6 min for off-rate measurement. Kinetics data were fit using a global 1:1 binding model in the ForteBio Data Analysis Software 9.0 with reference subtraction.
# [9] = target: T3, human CD25 expressed on cells; assay: flow cytometry on Karpas 299 cells, Alexa Fluor 647 anti-human IgG Fc secondary [B); D00021 Figure 21 cont. C), D), E]
# Protocol: Binding to CD25 expressing Karpas299 cells was examined by staining test articles (anti-CD25 primary antibodies) with 20 μg/ml antibodies followed by semi-log dilution series (7-point) for 30 minutes on ice. […] All samples were stained in duplicates. Live cells were gated using FSC vs SSC parameters by flow cytometry during sample acquisition. Mean fluorescence intensity (MFI) of stained cells were plotted on an XY chart, graphing MFI against the log of the concentration, and the data fit to a non-linear regression curve from which the EC50 is calculated.
# [10] = target: T4, recombinant human CD25 extracellular …; assay: method not given; lower end of the stated range
# [11] = target: T3, human CD25 expressed on cells; assay: flow cytometry on CD3/CD28 bead activated human Pan T cells, gated on CD4+ T cells
# Protocol: as §4
# [12] = target: T6, human CD25 antigen, R&D Systems cat no. …; assay: SPR, Biacore T200; antibody captured by anti-human Fab, CD25 as analyte, Two State Reaction fit; column 'Binding strength' (affinity and/or avidity)
# Protocol: as §1, §3, §2
# [13] = target: T5, recombinant human CD25 his tagged; assay: SPR, Biacore 2000: IgG1 captured on an anti-human antibody CM-5 chip, rhCD25-his tag as analyte
# [14] = target: T5, recombinant human CD25 his tagged; assay: as above; remark: listed apart in the source
# [15] = target: T5, recombinant human CD25 his tagged; assay: as above; remark: listed apart in the source
# Protocol: as §5
# [16] = target: T5, recombinant human CD25 his tagged; assay: as above; remark: listed apart in the source
# Protocol: as §5
# [17] = target: T5, recombinant human CD25 his tagged; assay: as above; remark: listed apart in the source
# Protocol: as §5
binder,measurement,setting,value
B1,Kd,[1],2.5 nM
same,Kd,[2],244 nM
same,EC50 (read off the curve),[3],~1 µg/mL
same,EC50 (read off the curve),[4],~0.5 µg/mL
same,Kd,[5],≤ 10 nM
same,Kd,[6],3.2 nM
same,ADCC of iTregs by IL-2 activated NK cells: EC50,[7],0.21 uG/mL
same,Kd,[8],2.33 nM
same,EC50 (read off the curve),[9],~0.5 µg/mL
same,Kd,[10],≥ 0.1 nM
same,EC50 (read off the curve),[11],~0.4 µg/mL
same,Kd,[12],5.8 nM
B2,Kd,[13],0.97 nM
B3,Kd,[14],1.9 nM
B4,Kd,[15],0.34 nM
B5,Kd,[16],0.76 nM
B6,Kd,[17],0.66 nM
B7,ADCC of iTregs by IL-2 activated NK cells: EC50,[7],0.01 uG/mL
